The results in this text go back to patent publication US20150152165.

For data set [1], the system named is SELP815K 6-mer.
For data set [2], the target named is SELP815K 6-mer. This is another data set of the same source.

As to MMP-2, in the data set on SELP815K-MMPRS 6-mer, the “SDS-PAGE analysis of enzymatic digestion” value is “SELP815K-MMPRS is digested by MMP-2 and MMP-9”; the “higher protein loss from hydrogel compared to control (2 weeks, 10 nM MMP)” value was 63% and 44% higher protein loss compared to control; the “increase of nanoparticle release compared to control” value is “increases of 65% and 95% compared to control”; the “percentage of total polymer per hydrogel lost (control about 24%)” value was “enzymatic digestion increasing this percentage to 39% and 35% for MMP-2 and MMP-9-induced degradation, respectively”. Besides, the “total release of 100 nm fluorescent nanoparticles from hydrogel at two weeks (no treatment 8.2%)” value with SELP815K-MMPRS 6-mer was “treatment with MMP-2 and MMP-9 caused release of 13.5% and 16% respectively”. In the data set with SELP815K 6-mer [1], the “SDS-PAGE analysis of enzymatic digestion” value is “SELP815K without the responsive sequence is not”; the “Young's modulus of hydrogel” value is reported as “there was no significant effect present in the standard SELP-815K polymer”; the “protein loss from hydrogel in the presence of MMPs” value is “SELP815K displayed statistically insignificant levels of increased protein loss in the presence of MMPs”; the “total release of 100 nm fluorescent nanoparticles from hydrogel at two weeks (no treatment 9.3%)” value was “MMP-2 and MMP-9 treatment conditions yielded release of 12.1% and 9.4%, respectively”.
For the molecule MMP-9, in the data set on SELP815K-MMPRS 6-mer, the “SDS-PAGE analysis of enzymatic digestion” value is “SELP815K-MMPRS is digested by MMP-2 and MMP-9”; the “higher protein loss from hydrogel compared to control (2 weeks, 10 nM MMP)” value is 63% and 44% higher protein loss compared to control; the “increase of nanoparticle release compared to control” value is “increases of 65% and 95% compared to control”; the “loss in Young's modulus of hydrogel” value was “MMP-9 affected a 24% loss”. Also, in the data set with SELP815K-MMPRS 6-mer, the “percentage of total polymer per hydrogel lost (control about 24%)” value was “enzymatic digestion increasing this percentage to 39% and 35% for MMP-2 and MMP-9-induced degradation, respectively”; the “total release of 100 nm fluorescent nanoparticles from hydrogel at two weeks (no treatment 8.2%)” value was “treatment with MMP-2 and MMP-9 caused release of 13.5% and 16% respectively”. In the data set on SELP815K 6-mer [1], the “SDS-PAGE analysis of enzymatic digestion” value was “SELP815K without the responsive sequence is not”; the “Young's modulus of hydrogel” value is reported as “there was no significant effect present in the standard SELP-815K polymer”; the “protein loss from hydrogel in the presence of MMPs” value is “SELP815K displayed statistically insignificant levels of increased protein loss in the presence of MMPs”; the “total release of 100 nm fluorescent nanoparticles from hydrogel at two weeks (no treatment 9.3%)” value was “MMP-2 and MMP-9 treatment conditions yielded release of 12.1% and 9.4%, respectively”.

B1: Human Leukocyte Elastase (protein)
chain: IVGGRRARPHAWPFMVSLQLRGGHFCGATLIAPNFVMSAAHCVANVNVRAVRVVLGAHNLSRREPTRQVFAVQRIFENGYDPVNLLNDIVILQLNGSATINANVQVAQLPAQGRRLGNGVQCLAMGWGLLGRNRGIASVLQELNVTVVTSLCRRSNVCTLVRGRQAGVCFGDSGSPLVCNGLIHGIASFVRGGCASGLYPDAFAPVAQFVNWIDSIIQ
With B1, the “soluble fraction release from hydrogel (elastase degradation)” value with SELP815K 6-mer [2] is “SELP815K shows the lowest sensitivity to degradation”; with SELP415K it was “SELP415K appears to be the most sensitive to elastase degradation”; with SELP47K it was “SELP815K at 8 wt % is more resistant to degradation than SELP47K and SELP415K at 12 wt %”.
